Among the data in paper PMC3206013, “Unique Interplay between Sugar and Lipid in Determining the Antigenic Potency of Bacterial Antigens for NKT Cells” (PLoS Biology, 2011) are Kd values, retold here.

This experiment deals with biotinylated mouse CD1d/β2m, wild type, loaded with α-GalCer (mouse) (UniProt P11609). The experiment is described as follows: SPR; α-GalCer loaded. In general terms: SPR reads the build-up and loss of mass on a sensor chip optically.

pKd: −log10 of the molar value.

“Vα14Vβ8.2 iNKT TCR (mouse invariant NKT cell T cell receptor)” gave a pKd of 7.40.

The term pKd denotes −log10 of the Kd, conventionally taken in molar units.
